Laboratory results reported in publication PMC9352680, “A comprehensive thermodynamic model for RNA binding by the Saccharomyces cerevisiae Pumilio protein PUF4”.
Changes are numbered by the printed parent chain. Numbers in names are those of the source.

T1: PUF4 RNA-binding domain (Saccharomyces cerevisiae, UniProt P25339 537-888)
T1 sequence: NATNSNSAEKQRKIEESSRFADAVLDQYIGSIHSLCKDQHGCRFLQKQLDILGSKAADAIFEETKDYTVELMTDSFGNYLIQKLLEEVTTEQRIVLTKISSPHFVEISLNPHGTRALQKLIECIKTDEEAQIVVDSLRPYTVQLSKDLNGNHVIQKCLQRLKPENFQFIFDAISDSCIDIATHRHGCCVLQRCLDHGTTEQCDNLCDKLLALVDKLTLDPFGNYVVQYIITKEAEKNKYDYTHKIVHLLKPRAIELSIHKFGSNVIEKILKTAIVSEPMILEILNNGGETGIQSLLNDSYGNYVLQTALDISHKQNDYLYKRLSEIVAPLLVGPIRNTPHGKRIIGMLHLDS

B1: Ic_S2_P4E.1_K4.1_C4.1_H4.1_A4.1_[T5A]_[A6T]_[T7A]_F4.1_[T8A]_[A9T]_T4.1 (ssRNA)
RNA: UUUGAUUAAUAUGAUAUCGUUCUUUCUUGUAAUAAUUUCUUUCUCGAUAUCAUAUUAAUCUUU
B2: Ic_S2_P4E.1_K4.1_C4.1_H4.1_A4.1_[A6G]_[T7C]_F4.1_[T8A]_[A9G]_T4.1 (ssRNA)
RNA: B1 RNA with A32U, U33G, A34C, U36G
B3: Ic_S2_P4E.1_K4.1_C4.1_H4.1_A4.1_[T5A]_[A6T]_F4.1_[A9C]_T4.1 (ssRNA)
RNA: B1 RNA with A34U, A35U, U36C
B4: Ic_S2_P4E.1_K4.1_C4.1_H4.1_A4.1_[A6C]_[T7C]_F4.1_[T8A]_T4.1 (ssRNA)
RNA: B1 RNA with A32U, U33C, A34C, U36A
B5: Ic_S2_P4E.1_K4.1_C4.1_H4.1_A4.1_[T5A]_F4.1_[T8A]_[A9C]_T4.1 (ssRNA)
RNA: B1 RNA with U33A, A34U, U36C
B6: Ic_S2_P4E.1_K4.1_C4.1_H4.1_A4.1_[T5A]_[A6T]_F4.1_[T8C]_[A9G]_T4.1 (ssRNA)
RNA: B1 RNA with A34U, A35C, U36G
B7: Ic_S2_P4E.1_K4.1_C4.1_H4.1_A4.1_[A6G]_F4.1_[T8C]_[A9T]_T4.1 (ssRNA)
RNA: B1 RNA with A32U, U33G, A34U, A35C
B8: Ic_S2_P4E.1_K4.1_C4.1_H4.1_A4.1_[T5A]_[T7C]_F4.1_[T8A]_T4.1 (ssRNA)
RNA: B1 RNA with U33A, A34C, U36A
B9: Ic_S2_P4E.1_K4.1_C4.1_H4.1_A4.1_[A6G]_[T7C]_F4.1_[T8A]_T4.1 (ssRNA)
RNA: B1 RNA with A32U, U33G, A34C, U36A
B10: Ic_S2_P4E.1_K4.1_C4.1_H4.1_A4.1_[T5A]_[T7A]_F4.1_[A9C]_T4.1 (ssRNA)
RNA: B1 RNA with U33A, A35U, U36C
B11: Ic_S2_P4E.1_K4.1_C4.1_H4.1_A4.1_[T5A]_[A6T]_F4.1_[T8C]_[A9T]_T4.1 (ssRNA)
RNA: B1 RNA with A34U, A35C
B12: Ic_S2_P4E.1_K4.1_C4.1_H4.1_A4.1_[A6G]_F4.1_[T8G]_[A9T]_T4.1 (ssRNA)
RNA: B1 RNA with A32U, U33G, A34U, A35G
B13: Ic_S2_P4E.1_K4.1_C4.1_H4.1_A4.1_[A6G]_[T7C]_F4.1_[A9T]_T4.1 (ssRNA)
RNA: B1 RNA with A32U, U33G, A34C, A35U
B14: Ic_S2_P4E.1_K4.1_C4.1_H4.1_A4.1_[A6G]_[T7C]_F4.1_[T8A]_[A9T]_T4.1 (ssRNA)
RNA: B1 RNA with A32U, U33G, A34C
B15: Ic_S2_P4E.1_K4.1_C4.1_H4.1_A4.1_[T5A]_F4.1_[T8G]_[A9T]_T4.1 (ssRNA)
RNA: B1 RNA with U33A, A34U, A35G
B16: Ic_S2_P4E.1_K4.1_C4.1_H4.1_A4.1_[A6C]_[T7C]_F4.1_[T8G]_[A9C]_T4.1 (ssRNA)
RNA: B1 RNA with A32U, U33C, A34C, A35G, U36C
B17: Ic_S2_P4E.1_K4.1_C4.1_H4.1_A4.1_[A6G]_[T7G]_F4.1_[T8C]_[A9G]_T4.1 (ssRNA)
RNA: B1 RNA with A32U, U33G, A34G, A35C, U36G
B18: Ic_S2_P4E.1_K4.1_C4.1_H4.1_A4.1_[T5A]_[T7C]_F4.1_[A9T]_T4.1 (ssRNA)
RNA: B1 RNA with U33A, A34C, A35U
B19: Ic_S2_P4E.1_K4.1_C4.1_H4.1_A4.1_[A6G]_[T7C]_F4.1_[T8C]_T4.1 (ssRNA)
RNA: B1 RNA with A32U, U33G, A34C, A35C, U36A
B20: Ic_S2_P4E.1_K4.1_C4.1_H4.1_A4.1_[T5A]_[T7C]_F4.1_[T8A]_[A9C]_T4.1 (ssRNA)
RNA: B1 RNA with U33A, A34C, U36C
B21: Ic_S2_P4E.1_K4.1_C4.1_H4.1_A4.1_[A6C]_[T7C]_F4.1_[T8G]_[A9T]_T4.1 (ssRNA)
RNA: B1 RNA with A32U, U33C, A34C, A35G
B22: Ic_S2_P4E.1_K4.1_C4.1_H4.1_A4.1_[T5A]_[T7A]_F4.1_[A9G]_T4.1 (ssRNA)
RNA: B1 RNA with U33A, A35U, U36G
B23: Ic_S2_P4E.1_K4.1_C4.1_H4.1_A4.1_[A6G]_[T7C]_F4.1_[T8C]_[A9T]_T4.1 (ssRNA)
RNA: B1 RNA with A32U, U33G, A34C, A35C
B24: Ic_S2_P4E.1_K4.1_C4.1_H4.1_A4.1_[T5A]_[A6T]_F4.1_[A9T]_T4.1 (ssRNA)
RNA: B1 RNA with A34U, A35U
B25: Ic_S2_P4E.1_K4.1_C4.1_H4.1_A4.1_[T5A]_[A6T]_F4.1_[T8A]_[A9T]_T4.1 (ssRNA)
RNA: B1 RNA with A34U
B26: Ic_S2_P4E.1_K4.1_C4.1_H4.1_A4.1_[A6G]_F4.1_[T8G]_[A9G]_T4.1 (ssRNA)
RNA: B1 RNA with A32U, U33G, A34U, A35G, U36G

molecular target: T1, PUF4 RNA-binding domain; assay: Mg; RNA-MaP; 20 mM Na-HEPES pH 7.4, 30 mM KOAc, 0.75 mM MgCl2, 0.1% Tween-20, 5% glycerol, 0.1 mg/mL BSA, 2 mM DTT; 25 C; 0.0125-409.6 nM protein; conditions: tags: N-His6-TEV cleaved; C-SNAP kept, Cy3B-labelled; label: tethered on chip by stalled RNA polymerase

| Binder | Kd [nM] |
| --- | --- |
| UCUCUUUGUAAUUAUCUCUU (ssRNA) [Ib_S1_P3E.1_K3.1_C3.1_H3.1_A3.1_[T5A]_[A6T]_F3.1_T3.1] | 155 |
| UCUCUUUGUAUAUGCUCUCUU (ssRNA) [Ib_S1_P4E.1_K4.1_C4.1_H4.1_A4.1_F4.1_[T8G]_[A9C]_T4.1] | 26.8 |
| UCUCUUUGUAUAUGUUCUCUU (ssRNA) [Ic_S1_P4E.1_K4.1_C4.1_H4.1_A4.1_F4.1_[T8G]_[A9T]_T4.1] | 15.6 |
| B1 | 94.7 |
| B2 | 1090 |
| B3 | 44.7 |
| B4 | 369 |
| B5 | 23.4 |
| B6 | 649 |
| B7 | 57 |
| B8 | 57.8 |
| B9 | 239 |
| B10 | 65.2 |
| B11 | 48 |
| B12 | 17 |
| B13 | 23.9 |
| B14 | 155 |
| B15 | 164 |
| B16 | 800 |
| B17 | 1670 |
| B18 | 14.6 |
| B19 | 29.3 |
| B20 | 528 |
| B21 | 149 |
| B22 | 21 |
| B23 | 404 |
| B24 | 22.4 |
| B25 | 36.2 |
| B26 | 215 |
